Data reported in paper PMC9482650, “Quantitative fragmentomics allow affinity mapping of interactomes” (Nature Communications, 2022).

T1: MPP2, Q14168
T1 sequence (Q14168 180-250, limits assumed, looked up): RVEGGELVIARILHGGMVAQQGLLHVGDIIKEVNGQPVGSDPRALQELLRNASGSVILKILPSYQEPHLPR

T2: LIN7B, Q9HAP6
T2 sequence (Q9HAP6 88-185, limits assumed, looked up): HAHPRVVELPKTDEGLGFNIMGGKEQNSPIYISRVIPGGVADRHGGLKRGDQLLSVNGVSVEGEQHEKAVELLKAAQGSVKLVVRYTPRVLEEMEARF

T3: RADIL, Q96JH8
T3 sequence (Q96JH8 971-1071, limits assumed, looked up): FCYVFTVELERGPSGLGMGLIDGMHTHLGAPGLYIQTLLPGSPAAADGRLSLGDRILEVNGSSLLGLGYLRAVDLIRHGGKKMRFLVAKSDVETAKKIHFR

T4: TIAM2, Q8IVF5
T4 sequence (Q8IVF5 885-986, limits assumed, looked up): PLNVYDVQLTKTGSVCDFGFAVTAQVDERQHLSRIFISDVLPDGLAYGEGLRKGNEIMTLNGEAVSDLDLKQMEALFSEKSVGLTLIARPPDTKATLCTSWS

T5: ARHGEF11, O15085
T5 sequence (O15085 42-136, limits assumed, looked up): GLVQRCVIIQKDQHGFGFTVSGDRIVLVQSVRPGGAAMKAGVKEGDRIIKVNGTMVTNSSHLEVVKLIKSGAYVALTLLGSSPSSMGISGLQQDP

T6: LNX2_2, Q8N448
T6 sequence (Q8N448 334-432, limits assumed, looked up): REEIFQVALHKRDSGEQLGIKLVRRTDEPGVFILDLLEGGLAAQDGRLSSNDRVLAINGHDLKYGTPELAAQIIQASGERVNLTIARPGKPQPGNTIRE

T7: GRIP1_5, Q9Y3R0
T7 sequence (Q9Y3R0 568-668, limits assumed, looked up): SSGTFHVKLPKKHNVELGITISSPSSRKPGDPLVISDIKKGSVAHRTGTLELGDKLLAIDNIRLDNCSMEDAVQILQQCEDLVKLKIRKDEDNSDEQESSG

T8: DLG3_3, Q92796
T8 sequence (Q92796 374-475, limits assumed, looked up): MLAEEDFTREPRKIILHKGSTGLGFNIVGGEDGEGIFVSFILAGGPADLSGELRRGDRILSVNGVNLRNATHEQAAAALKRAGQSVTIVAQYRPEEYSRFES

T9: LNX2_3, Q8N448
T9 sequence (Q8N448 463-564, limits assumed, looked up): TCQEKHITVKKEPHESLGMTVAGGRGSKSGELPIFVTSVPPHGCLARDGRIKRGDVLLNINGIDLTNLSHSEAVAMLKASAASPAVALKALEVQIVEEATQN

T10: DVL3, Q92997
T10 sequence (Q92997 244-331, limits assumed, looked up): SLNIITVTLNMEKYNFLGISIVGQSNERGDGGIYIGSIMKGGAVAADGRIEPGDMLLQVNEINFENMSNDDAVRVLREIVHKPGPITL

T11: GRIP1_4, Q9Y3R0
T11 sequence (Q9Y3R0 467-571, limits assumed, looked up): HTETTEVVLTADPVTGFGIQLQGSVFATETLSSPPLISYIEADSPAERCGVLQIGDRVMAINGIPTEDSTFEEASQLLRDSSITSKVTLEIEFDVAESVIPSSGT

T12: NHERF3_1, Q5T2W1
T12 sequence (Q5T2W1 4-100, limits assumed, looked up): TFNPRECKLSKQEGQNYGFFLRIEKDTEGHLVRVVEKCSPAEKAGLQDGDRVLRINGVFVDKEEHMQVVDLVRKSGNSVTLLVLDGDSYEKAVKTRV


Each binder was assayed against Inadl_2, Q8NI35 (assay: holdup assay). Conditions: plain residues with an end cap or a label only (N-terminal biotin on a linker: ado-ado).
Set-up: key: below the threshold = too weak to quantify, mostly under pKd 3.1 to 4

Inadl_2, Q8NI35, sequence (Q8NI35 238-335): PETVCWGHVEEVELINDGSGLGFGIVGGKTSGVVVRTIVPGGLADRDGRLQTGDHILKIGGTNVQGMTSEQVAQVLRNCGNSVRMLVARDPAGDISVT

Binder | pKd
TNSKQGETTV [FZD1, Q9UP38] | below the threshold
IQISELETNV [SLC1A7, O00341] | below the threshold

Each binder was assayed against GRIP2_5, Q9C0E4 (assay: holdup assay). Conditions: plain residues with an end cap or a label only (N-terminal biotin on a linker: ado-ado).
Set-up: key: below the threshold = too weak to quantify, mostly under pKd 3.1 to 4

GRIP2_5, Q9C0E4, sequence (Q9C0E4 544-642): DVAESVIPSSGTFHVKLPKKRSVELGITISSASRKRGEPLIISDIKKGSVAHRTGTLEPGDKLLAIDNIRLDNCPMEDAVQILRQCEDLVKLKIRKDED

Binder | pKd
TNSKQGETTV [FZD1, Q9UP38] | below the threshold
IQISELETNV [SLC1A7, O00341] | below the threshold

These binders were tested against T1, MPP2, Q14168 (assay: holdup assay). Conditions: plain residues with an end cap or a label only (N-terminal biotin on a linker: ado-ado).
Set-up: key: below the threshold = too weak to quantify, mostly under pKd 3.1 to 4

Binder | pKd
TNSKQGETTV [FZD1, Q9UP38] | below the threshold
IQISELETNV [SLC1A7, O00341] | below the threshold

These binders were tested against NOS1, P29475 (assay: holdup assay). Conditions: plain residues with an end cap or a label only (N-terminal biotin on a linker: ado-ado).
Set-up: key: below the threshold = too weak to quantify, mostly under pKd 3.1 to 4

NOS1, P29475, sequence (P29475 9-101): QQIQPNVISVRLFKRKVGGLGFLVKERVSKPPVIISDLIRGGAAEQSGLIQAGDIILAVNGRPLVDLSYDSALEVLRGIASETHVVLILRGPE

Binder | pKd
TNSKQGETTV [FZD1, Q9UP38] | 3.53
IQISELETNV [SLC1A7, O00341] | below the threshold

Each binder was assayed against PARD3_3, Q8TEW0 (assay: holdup assay). Conditions: plain residues with an end cap or a label only (N-terminal biotin on a linker: ado-ado).
Set-up: key: below the threshold = too weak to quantify, mostly under pKd 3.1 to 4

PARD3_3, Q8TEW0, sequence (Q8TEW0 582-685): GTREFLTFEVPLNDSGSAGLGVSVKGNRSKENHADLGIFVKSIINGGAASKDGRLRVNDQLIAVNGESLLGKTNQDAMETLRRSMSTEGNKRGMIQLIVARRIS

Binder | pKd
TNSKQGETTV [FZD1, Q9UP38] | 3.58
IQISELETNV [SLC1A7, O00341] | 3.68

What follows are binders tested against IL16_4, Q14005 (assay: holdup assay). Conditions: plain residues with an end cap or a label only (N-terminal biotin on a linker: ado-ado).
Set-up: key: below the threshold = too weak to quantify, mostly under pKd 3.1 to 4

IL16_4, Q14005, sequence (Q14005 1229-1329): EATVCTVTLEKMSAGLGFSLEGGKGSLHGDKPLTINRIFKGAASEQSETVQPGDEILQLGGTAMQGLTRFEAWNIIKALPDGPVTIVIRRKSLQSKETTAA

Binder | pKd
TNSKQGETTV [FZD1, Q9UP38] | 3.68
IQISELETNV [SLC1A7, O00341] | below the threshold

What follows are binders tested against MAGI2_2, Q86UL8 (assay: holdup assay). Conditions: plain residues with an end cap or a label only (N-terminal biotin on a linker: ado-ado).
Set-up: key: below the threshold = too weak to quantify, mostly under pKd 3.1 to 4

MAGI2_2, Q86UL8, sequence (Q86UL8 410-522): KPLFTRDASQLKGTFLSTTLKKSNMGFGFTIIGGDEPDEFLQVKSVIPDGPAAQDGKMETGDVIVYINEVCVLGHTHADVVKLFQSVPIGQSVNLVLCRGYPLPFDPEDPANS

Binder | pKd
TNSKQGETTV [FZD1, Q9UP38] | 4.38
IQISELETNV [SLC1A7, O00341] | below the threshold

What follows are binders tested against FRMPD4, Q14CM0 (assay: holdup assay). Conditions: plain residues with an end cap or a label only (N-terminal biotin on a linker: ado-ado).
Set-up: key: below the threshold = too weak to quantify, mostly under pKd 3.1 to 4

FRMPD4, Q14CM0, sequence (Q14CM0 67-160): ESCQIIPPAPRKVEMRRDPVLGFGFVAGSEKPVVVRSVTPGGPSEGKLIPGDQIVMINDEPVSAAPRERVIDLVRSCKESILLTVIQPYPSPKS

Binder | pKd
TNSKQGETTV [FZD1, Q9UP38] | below the threshold
IQISELETNV [SLC1A7, O00341] | 3.56

The binders below were run against T2, LIN7B, Q9HAP6 (assay: holdup assay). Conditions: plain residues with an end cap or a label only (N-terminal biotin on a linker: ado-ado).
Set-up: key: below the threshold = too weak to quantify, mostly under pKd 3.1 to 4

Binder | pKd
TNSKQGETTV [FZD1, Q9UP38] | below the threshold
IQISELETNV [SLC1A7, O00341] | below the threshold

What follows are binders tested against T3, RADIL, Q96JH8 (assay: holdup assay). Conditions: plain residues with an end cap or a label only (N-terminal biotin on a linker: ado-ado).
Set-up: key: below the threshold = too weak to quantify, mostly under pKd 3.1 to 4

Binder | pKd
TNSKQGETTV [FZD1, Q9UP38] | 3.63
IQISELETNV [SLC1A7, O00341] | below the threshold

The binders below were run against MAST2, Q6P0Q8 (assay: holdup assay). Conditions: plain residues with an end cap or a label only (N-terminal biotin on a linker: ado-ado).
Set-up: key: below the threshold = too weak to quantify, mostly under pKd 3.1 to 4

MAST2, Q6P0Q8, sequence (Q6P0Q8 1099-1202): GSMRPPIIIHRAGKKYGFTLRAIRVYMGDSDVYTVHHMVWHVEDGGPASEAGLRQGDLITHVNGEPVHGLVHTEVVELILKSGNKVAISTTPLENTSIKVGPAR

Binder | pKd
TNSKQGETTV [FZD1, Q9UP38] | 4.88
IQISELETNV [SLC1A7, O00341] | 5.61

The binders below were run against IL16_3, Q14005 (assay: holdup assay). Conditions: plain residues with an end cap or a label only (N-terminal biotin on a linker: ado-ado).
Set-up: key: below the threshold = too weak to quantify, mostly under pKd 3.1 to 4

IL16_3, Q14005, sequence (Q14005 1107-1207): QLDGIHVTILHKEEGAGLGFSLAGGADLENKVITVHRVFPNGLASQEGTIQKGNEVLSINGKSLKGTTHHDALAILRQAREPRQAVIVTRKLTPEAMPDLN

Binder | pKd
TNSKQGETTV [FZD1, Q9UP38] | below the threshold
IQISELETNV [SLC1A7, O00341] | below the threshold

The binders below were run against LAP2, Q96RT1 (assay: holdup assay). Conditions: plain residues with an end cap or a label only (N-terminal biotin on a linker: ado-ado).
Set-up: key: below the threshold = too weak to quantify, mostly under pKd 3.1 to 4

LAP2, Q96RT1, sequence (Q96RT1 other isoform, or with tags, fused parts or gaps): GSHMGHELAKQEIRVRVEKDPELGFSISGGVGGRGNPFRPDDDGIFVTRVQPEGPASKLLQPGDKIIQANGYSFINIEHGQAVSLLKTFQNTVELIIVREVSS

Binder | pKd
TNSKQGETTV [FZD1, Q9UP38] | 3.61
IQISELETNV [SLC1A7, O00341] | 4.5

What follows are binders tested against T4, TIAM2, Q8IVF5 (assay: holdup assay). Conditions: plain residues with an end cap or a label only (N-terminal biotin on a linker: ado-ado).
Set-up: key: below the threshold = too weak to quantify, mostly under pKd 3.1 to 4

Binder | pKd
TNSKQGETTV [FZD1, Q9UP38] | below the threshold
IQISELETNV [SLC1A7, O00341] | below the threshold

Each binder was assayed against T5, ARHGEF11, O15085 (assay: holdup assay). Conditions: plain residues with an end cap or a label only (N-terminal biotin on a linker: ado-ado).
Set-up: key: below the threshold = too weak to quantify, mostly under pKd 3.1 to 4

Binder | pKd
TNSKQGETTV [FZD1, Q9UP38] | 4.25
IQISELETNV [SLC1A7, O00341] | 3.94

These binders were tested against T6, LNX2_2, Q8N448 (assay: holdup assay). Conditions: plain residues with an end cap or a label only (N-terminal biotin on a linker: ado-ado).
Set-up: key: below the threshold = too weak to quantify, mostly under pKd 3.1 to 4

Binder | pKd
TNSKQGETTV [FZD1, Q9UP38] | 4.71
IQISELETNV [SLC1A7, O00341] | 4.02

The binders below were run against T7, GRIP1_5, Q9Y3R0 (assay: holdup assay). Conditions: plain residues with an end cap or a label only (N-terminal biotin on a linker: ado-ado).
Set-up: key: below the threshold = too weak to quantify, mostly under pKd 3.1 to 4

Binder | pKd
TNSKQGETTV [FZD1, Q9UP38] | below the threshold
IQISELETNV [SLC1A7, O00341] | below the threshold

These binders were tested against T8, DLG3_3, Q92796 (assay: holdup assay). Conditions: plain residues with an end cap or a label only (N-terminal biotin on a linker: ado-ado).
Set-up: key: below the threshold = too weak to quantify, mostly under pKd 3.1 to 4

Binder | pKd
TNSKQGETTV [FZD1, Q9UP38] | 4.13
IQISELETNV [SLC1A7, O00341] | 3.56

What follows are binders tested against SNX27, Q96L92 (assay: holdup assay). Conditions: plain residues with an end cap or a label only (N-terminal biotin on a linker: ado-ado).
Set-up: key: below the threshold = too weak to quantify, mostly under pKd 3.1 to 4

Binder | pKd
TNSKQGETTV [FZD1, Q9UP38] | 5.5
IQISELETNV [SLC1A7, O00341] | 5.65

The binders below were run against GIPC2, Q8TF65 (assay: holdup assay). Conditions: plain residues with an end cap or a label only (N-terminal biotin on a linker: ado-ado).
Set-up: key: below the threshold = too weak to quantify, mostly under pKd 3.1 to 4

GIPC2, Q8TF65, sequence (Q8TF65 112-203): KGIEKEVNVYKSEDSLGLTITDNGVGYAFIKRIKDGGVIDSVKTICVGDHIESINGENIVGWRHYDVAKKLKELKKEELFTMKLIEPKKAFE

Binder | pKd
TNSKQGETTV [FZD1, Q9UP38] | 4.18
IQISELETNV [SLC1A7, O00341] | 3.86

The binders below were run against T9, LNX2_3, Q8N448 (assay: holdup assay). Conditions: plain residues with an end cap or a label only (N-terminal biotin on a linker: ado-ado).
Set-up: key: below the threshold = too weak to quantify, mostly under pKd 3.1 to 4

Binder | pKd
TNSKQGETTV [FZD1, Q9UP38] | below the threshold
IQISELETNV [SLC1A7, O00341] | below the threshold

Each binder was assayed against T10, DVL3, Q92997 (assay: holdup assay). Conditions: plain residues with an end cap or a label only (N-terminal biotin on a linker: ado-ado).
Set-up: key: below the threshold = too weak to quantify, mostly under pKd 3.1 to 4

Binder | pKd
TNSKQGETTV [FZD1, Q9UP38] | 3.61
IQISELETNV [SLC1A7, O00341] | below the threshold

These binders were tested against TJP2_1, Q9UDY2 (assay: holdup assay). Conditions: plain residues with an end cap or a label only (N-terminal biotin on a linker: ado-ado).
Set-up: key: below the threshold = too weak to quantify, mostly under pKd 3.1 to 4

TJP2_1, Q9UDY2, sequence (Q9UDY2 24-128): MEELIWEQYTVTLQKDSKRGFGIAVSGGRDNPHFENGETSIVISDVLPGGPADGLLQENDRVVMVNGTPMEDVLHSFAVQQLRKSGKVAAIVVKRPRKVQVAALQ

Binder | pKd
TNSKQGETTV [FZD1, Q9UP38] | below the threshold
IQISELETNV [SLC1A7, O00341] | below the threshold

What follows are binders tested against DLG1_2, Q12959 (assay: holdup assay). Conditions: plain residues with an end cap or a label only (N-terminal biotin on a linker: ado-ado).
Set-up: key: below the threshold = too weak to quantify, mostly under pKd 3.1 to 4

DLG1_2, Q12959, sequence (Q12959 314-412): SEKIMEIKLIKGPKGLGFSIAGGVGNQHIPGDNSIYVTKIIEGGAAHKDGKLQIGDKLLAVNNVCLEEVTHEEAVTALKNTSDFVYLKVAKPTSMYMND

Binder | pKd
TNSKQGETTV [FZD1, Q9UP38] | 5.09
IQISELETNV [SLC1A7, O00341] | 4.91

What follows are binders tested against T11, GRIP1_4, Q9Y3R0 (assay: holdup assay). Conditions: plain residues with an end cap or a label only (N-terminal biotin on a linker: ado-ado).
Set-up: key: below the threshold = too weak to quantify, mostly under pKd 3.1 to 4

Binder | pKd
TNSKQGETTV [FZD1, Q9UP38] | below the threshold
IQISELETNV [SLC1A7, O00341] | below the threshold

Each binder was assayed against T12, NHERF3_1, Q5T2W1 (assay: holdup assay). Conditions: plain residues with an end cap or a label only (N-terminal biotin on a linker: ado-ado).
Set-up: key: below the threshold = too weak to quantify, mostly under pKd 3.1 to 4

Binder | pKd
TNSKQGETTV [FZD1, Q9UP38] | below the threshold
IQISELETNV [SLC1A7, O00341] | 3.82
